This is an account of results in article PMC11532998.

Assay [1] deals with NfsB with C-terminal encapsulin localization sequence (cargo of Enc{NfsB}) (E. coli | M. smegmatis).
Assay [2] concerns the target T1, encapsulin from Mycobacterium smegmatis (UniProt ID: I7G8Y9), C-terminal Strep-tag (Mycobacterium smegmatis mc2 155). Description: SDS-PAGE gel densitometry of the co-purified complex; Enc{tdNfsB} at 500 ug/mL on a 15% gel, Coomassie; calibration curves of Enc and tdNfsB; molar ratio of tdNfsB (52.3 kDa) to Enc shell (1804.2 kDa); repeated twice.
Assay [3] deals with T1, encapsulin from Mycobacterium smegmatis. Description: cryo-EM structure; same data set of purified Enc{tdNfsB}; the shell was subtracted from the particles, 2-D classification and low-resolution 3-D reconstruction of the interior; cargo and shell co-expressed in E. coli.

Values joined by “and” are separate entries in the source; they are usually repeats but may differ in a detail not shown here. Equal entries are not always repeated.

As for “NfsB with C-terminal encapsulin localization sequence (cargo of Enc{NfsB}) (enzyme)”, the conversion of caged-hydroxy-CBT after 60 min by Enc{NfsB} (coupled luciferase assay), against 50% for free NfsB and tdNfsB and a comparable conversion for Enc{tdNfsB} in assay [1] worked out at 10%. “tandem NfsB with C-terminal encapsulin localization sequence (cargo of Enc{tdNfsB}) (enzyme)”: the stoichiometry N (tdNfsB units per shell) in assay [2] is 10 and 13. This substance had a stoichiometry N (tdNfsB per capsid) in assay [3] of 6.
